# Laboratory results reported in PMC5421877, “SOCS3 inhibits the pathological effects of IL-22 in non-melanoma skin tumor-derived keratinocytes” (Oncotarget, 2017).
# B1: IL-22: cytokine stimulus, R&D Systems (protein, UniProt Q9GZX6 34-179, looked up)
# Interleukin-22: APISSHCRLDKSNFQQPYITNRTFMLAKEASLADNNTDVRLIGEKLFHGVSMSERCYLMKQVLNFTLEEVLFPQSDRFQPYMQEVVPFLARLSNRLSTCHIEGDDLHIQRNVQKLKDTVKKLGESGEIKAIGELDLLFMSLRNACI
# Columns and labels:
# Assay type in all cases: cell-based, human
# [1] = tested on: Erk1/2 phosphorylation in healthy keratinocytes; assay: Western blot of Erk1/2 phosphorylation in healthy keratinocytes (IL-22); conditions: IL-22 time course, no peptide, n = 3
# Experimental: (§1) Figure 5 KIR-ESS peptide inhibits IL-22-induced phosphorylation of STAT3 and Erk in healthy and SCC-derived keratinocytes (A) Protein extracts obtained from healthy keratinocytes (n = 3) pre-treated or not with 15 μM (left panel) or 75 μM (right panel), KIR, KIR-ESS and control (Ctrl1 or Ctrl2) peptides, and, then, […], were subjected to WB analysis to detect STAT3 (Tyr705), Erk and MEK phosphorylation. Filters were probed with anti-STAT3, -Erk and –MEK Abs (top). (B) Protein extracts obtained from healthy keratinocytes (n = 3) pre-treated or not with 75 μM KIR-ESS and control (Ctrl1) peptides, and, then, stimulated or not with IL-22 for 10 min, were subjected to immunoprecipitation for IL-22R1 and Jak1, and then analysed by WB to detect phosphorylated and unphosphorylated forms of the proteins. (C) Unphosphorylated and phosphorylated forms of STAT1 (Tyr701) and STAT3 (Tyr705) were monitored in keratinocytes treated with IFN-γ for 15 min by WB analysis (bottom). In all experimental groups, filters were stripped and re-probed with β-actin Ab. (D) Protein extracts were obtained from CAL27 (left panel) or CAL33 (right panel) lines treated or not with 75 μM peptides in presence of IL-22 or IFN-γ. WB was performed to detect basal and phosphorylated STAT1, STAT3 and Erk. D.I. ratio indicates the densitometric intensity of phosphorylated/unphosphorylated target protein. […]
# [2] = tested on: MEK phosphorylation; assay: Western blot of MEK phosphorylation in healthy keratinocytes (IL-22); conditions: IL-22 time course, no peptide, n = 3
# Experimental: as §1
# [3] = tested on: IL-22R1 phosphorylation; assay: IP/WB of IL-22R1 phosphorylation in healthy keratinocytes (IL-22); conditions: IL-22 10 min, no peptide, n = 3
# Experimental: Figure 5 KIR-ESS peptide inhibits IL-22-induced phosphorylation of STAT3 and Erk in healthy and SCC-derived keratinocytes (A) Protein extracts obtained from healthy keratinocytes (n = 3) pre-treated or not with 15 μM (left panel) or 75 μM (right panel), KIR, KIR-ESS and control (Ctrl1 or Ctrl2) peptides, and, then, stimulated or not with IL-22 for 20 min, were subjected to WB analysis to detect STAT3 (Tyr705), Erk and MEK phosphorylation. Filters were probed with anti-STAT3, -Erk and –MEK Abs (top). (B) Protein extracts obtained from healthy keratinocytes (n = 3) pre-treated or not with 75 μM KIR-ESS and control (Ctrl1) peptides, and, then, stimulated or not with IL-22 for 10 min, were subjected to immunoprecipitation for IL-22R1 and Jak1, and then analysed by WB to detect phosphorylated and unphosphorylated forms of the proteins. (C) Unphosphorylated and phosphorylated forms of STAT1 (Tyr701) and STAT3 (Tyr705) were monitored in keratinocytes treated with IFN-γ for 15 min by WB analysis (bottom). In all experimental groups, filters were stripped and re-probed with β-actin Ab. (D) Protein extracts were obtained from CAL27 (left panel) or CAL33 (right panel) lines treated or not with 75 μM peptides in presence of IL-22 or IFN-γ. WB was performed to detect basal and phosphorylated STAT1, STAT3 and Erk. […]
# [4] = tested on: Tyk2 phosphorylation; assay: Tyk2 phosphorylation in healthy keratinocytes (IL-22); conditions: IL-22 10 min, no peptide, n = 3
# Experimental: 2nd- or 3rd-passage cultures of human keratinocyte strains (n = 5), obtained as previously described, were grown in serum-free Keratinocyte Growth Medium (KGM; Clonetics, Walkersville, MD, USA), for 3–5 days (at 60–80% confluence) before performing experiments. The HaCaT human keratinocyte cell line was a gift from N.E. Fusenig (Deutsches Krebsforschungszentrum, Heidelberg, Germany), and was grown in Dulbecco modified Eagle medium (DMEM; Biochrom, Cambridge, UK) supplemented with 10% Fetalclone II serum (HyClone Laboratories, South Logan, UT, USA). SCC-derived cell lines, CAL27-and CAL33 (American Tissue Culture Collection, ATCC, Milan, Italy), SCC12, SCC13 and SCC-15 (kindly provided by Dr. A. Marconi, University of Modena e Reggio Emilia, Italy), as well as M77015-08 and TE354.T (ATCC) were grown in DMEM (Biocrhom AG, Cambridge, UK) with 10% fetal bovine serum (HyClone Laboratories). Primary cultures of healthy keratinocytes and skin tumor cell lines were treated with peptides (KIR, KIR-ESS, Ctrl1 and Ctrl2) resuspended in 1X PBS for 1 h and, then, stimulated with 50 ng/ml IL-22 or 200 U/ml IFN-γ (R&D Systems, Minneapolis, MN, USA) in keratinocyte basal medium (KBM, Clonetics) or DMEM, respectively.
# Total protein extracts were prepared as previously reported. Immunoprecipitation and immunoblotting were performed accordingly to standard procedures. […]
molecule,measurement,setting,value
B1,Erk1/2 activation,[1],"culminated with STAT3, MEK1/2 and Erk1/2 activation"
same,MEK1/2 activation,[2],"culminated with STAT3, MEK1/2 and Erk1/2 activation"
same,IL-22R1 phosphorylation induced,[3],"induced molecular cascade implicating phosphorylation of IL-22R1, Tyk2 and Jak1"
same,Tyk2 phosphorylation induced,[4],"induced molecular cascade implicating phosphorylation of IL-22R1, Tyk2 and Jak1"
